{"source": "paper PMC5032119", "target": "Ku70-HisTag (mouse) (UniProt P23475)", "sequence (P23475 whole entry, the tested form may be a part)": "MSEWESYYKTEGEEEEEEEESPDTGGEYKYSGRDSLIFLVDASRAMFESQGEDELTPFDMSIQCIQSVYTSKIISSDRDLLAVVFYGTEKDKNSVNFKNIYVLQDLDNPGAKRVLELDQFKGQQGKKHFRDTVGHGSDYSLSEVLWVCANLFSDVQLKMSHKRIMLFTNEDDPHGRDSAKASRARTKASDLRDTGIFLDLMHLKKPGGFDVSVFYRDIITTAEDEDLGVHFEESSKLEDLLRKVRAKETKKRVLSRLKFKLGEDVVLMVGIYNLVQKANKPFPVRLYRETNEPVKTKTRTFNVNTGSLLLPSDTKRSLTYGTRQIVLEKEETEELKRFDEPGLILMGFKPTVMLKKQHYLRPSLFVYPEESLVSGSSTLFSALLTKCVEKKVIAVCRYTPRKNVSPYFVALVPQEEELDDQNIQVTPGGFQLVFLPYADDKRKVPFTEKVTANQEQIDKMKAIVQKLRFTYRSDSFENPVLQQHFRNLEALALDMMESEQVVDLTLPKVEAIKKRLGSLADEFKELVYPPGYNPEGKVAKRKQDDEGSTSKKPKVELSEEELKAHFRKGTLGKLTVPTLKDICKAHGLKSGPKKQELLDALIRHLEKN", "test": "fluorescence polarisation; FIDA-PO on an MF20 (Olympus) single molecule fluorescence spectroscopy; 5 nM fluorescent Ku70-HisTag in solution, 500 nM GST-HttExon1-110Q added; 40 ul per well, 384-well glass-bottom plate, PBS with 0.01% Tween 20 and 1% DMSO, room temperature", "data": [{"substance": "GST-HttExon1-110Q (domain or fragment)", "values": [{"measurement": "fluorescence polarization score", "result": 140}]}]}
